Legend:
[1] = target: human ErbB-2 (HER2) (human) (UniProt P04626); experiment: FACS on stable K562-HER2 cells; negative control
[2] = target: human ErbB-2 (HER2) (human) (UniProt P04626); experiment: cell-based or functional assay

MFI [1] | MCF-7 IC50 (pM), HRG dependent proliferation [2] | Substance
276 MFI |  | Anti-RSV mAb (antibody)
 | 352 pM | trastuzumab + pertuzumab (1:1)
